Measured values reported in the supplement of paper PMC11246515.
± gives the standard deviation of the averaged measurements.

Test: total protein half-life in vivo (active degradation + dilution); higher = more stable protein
[1] = E. coli NCM3722 delta-clpP delta-lon delta-hslV, growth: N-lim chemostat, doubling time 6 h
[2] = E. coli NCM3722 delta-clpP, growth: N-lim chemostat, doubling time 6 h
[3] = E. coli NCM3722 delta-hslV, growth: N-lim chemostat, doubling time 6 h
[4] = E. coli NCM3722 delta-lon, growth: N-lim chemostat, doubling time 6 h
[5] = E. coli NCM3722 delta-smpB, growth: N-lim chemostat, doubling time 6 h
[6] = wild type E. coli NCM3722, growth: C-lim chemostat, doubling time 3 h
[7] = wild type E. coli NCM3722, growth: C-lim chemostat, doubling time 6 h
[8] = wild type E. coli NCM3722, growth: C-lim chemostat, doubling time 12 h
[9] = wild type E. coli NCM3722, growth: N-lim chemostat, doubling time 6 h
[10] = wild type E. coli NCM3722, growth: N-lim chemostat, doubling time 12 h
[11] = wild type E. coli NCM3722, growth: P-lim chemostat, doubling time 6 h
[12] = wild type E. coli NCM3722, growth: P-lim chemostat, doubling time 12 h

Sequence	total protein half-life in vivo [1] [h]	total protein half-life in vivo [2] [h]	total protein half-life in vivo [3] [h]	total protein half-life in vivo [4] [h]	total protein half-life in vivo [5] [h]	total protein half-life in vivo [6] [h]	total protein half-life in vivo [7] [h]	total protein half-life in vivo [8] [h]	total protein half-life in vivo [9] [h]	total protein half-life in vivo [10] [h]	total protein half-life in vivo [11] [h]	total protein half-life in vivo [12] [h]
MPHNPIRVVVGPANYFSHPGSFNHLHDFFTDEQLSRAVWIYGKRAIAAAQTKLPPAFGLPGAKHILFRGHCSESDVQQLAAESGDDRSVVIGVGGGALLDTAKALARRLGLPFVAVPTIAATCAAWTPLSVWYNDAGQALHYEIFDDANFMVLVEPEIILNAPQQYLLAGIGDTLAKWYEAVVLAPQPETLPLTVRLGINNAQAIRDVLLNSSEQALSDQQNQQLTQSFCDVVDAIIAGGGMVGGLGDRFTRVAAAHAVHNGLTVLPQTEKFLHGTKVAYGILVQSALLGQDDVLAQLTGAYQRFHLPTTLAELEVDINNQAEIDKVIAHTLRPVESIHYLPVTLTPDTLRAAFKKVESFKA	4.77 ± 0.33	4.6 ± 0.098	4.1 ± 0.11	4.91 ± 0.17	4.21 ± 0.15	2.67 ± 0.1	5.28 ± 0.084	9.15 ± 1.6	4.38	7.78	5.64 ± 0.28	11.2 ± 0.17
MLKIFNTLTRQKEEFKPIHAGEVGMYVCGITVYDLCHIGHGRTFVAFDVVARYLRFLGYKLKYVRNITDIDDKIIKRANENGESFVAMVDRMIAEMHKDFDALNILRPDMEPRATHHIAEIIELTEQLIAKGHAYVADNGDVMFDVPTDPTYGVLSRQDLDQLQAGARVDVVDDKRNPMDFVLWKMSKEGEPSWPSPWGAGRPGWHIECSAMNCKQLGNHFDIHGGGSDLMFPHHENEIAQSTCAHDGQYVNYWMHSGMVMVDREKMSKSLGNFFTVRDVLKYYDAETVRYFLMSGHYRSQLNYSEENLKQARAALERLYTALRGTDKTVAPAGGEAFEARFIEAMDDDFNTPEAYSVLFDMAREVNRLKAEDMAAANAMASHLRKLSAVLGLLEQEPEAFLQSGAQADDSEVAEIEALIQQRLDARKAKDWAAADAARDRLNEMGIVLEDGPQGTTWRRK	5.28 ± 0.8	4.75 ± 0.24	4.85 ± 0.22	5.1 ± 0.24	4.97 ± 0.14	3.24 ± 0.29	5.41 ± 0.088	9.907 ± 0.043	4.84 ± 0.17	7.97 ± 0.15	6.14 ± 0.47	11.5 ± 0.18
MKIVKAEVFVTCPGRNFVTLKITTEDGITGLGDATLNGRELSVASYLQDHLCPQLIGRDAHRIEDIWQFFYKGAYWRRGPVTMSAISAVDMALWDIKAKAANMPLYQLLGGASREGVMVYCHTTGHSIDEALDDYARHQELGFKAIRVQCGIPGMKTTYGMSKGKGLAYEPATKGQWPEEQLWSTEKYLDFMPKLFDAVRNKFGFNEHLLHDMHHRLTPIEAARFGKSIEDYRMFWMEDPTPAENQECFRLIRQHTVTPIAVGEVFNSIWDCKQLIEEQLIDYIRTTLTHAGGITGMRRIADFASLYQVRTGSHGPSDLSPVCMAAALHFDLWVPNFGVQEYMGYSEQMLEVFPHNWTFDNGYMHPGDKPGLGIEFDEKLAAKYPYEPAYLPVARLEDGTLWNW	5.64 ± 0.3	–	–	–	–	3.61 ± 0.2	6.03 ± 0.18	10.5 ± 1.8	–	–	7.33	> 16
MIEIESRELADIPVLHAYPVGQKDTPLPCVIFYHGFTSSSLVYSYFAVALAQAGLRVIMPDAPDHGSRFSGDAARRLNQFWQILLQSMQEFTTLRAAIAEENWLLDDRLAVGGASMGAMTALGITARHPTVRCTASMMGSGYFTSLARSLFPPLIPETAAQQNEFNNIVAPLAEWEATNHLEQLSDRPLLLWHGLDDDVVPADESLRLQQALSETGRDKLLTCSWQPGVRHRITPEALDAAVTFFRQHL	4.25 ± 0.61	–	4.061 ± 0.029	4.32 ± 0.38	3.95 ± 0.12	3.24 ± 0.097	5.72 ± 0.33	11 ± 0.45	4.11 ± 0.3	6.87 ± 0.64	5.95 ± 0.17	12.2 ± 0.79
MNIENLKTKAEADISEYITKKIIELKKKTGKEVTSIQFTAREKMTGLESYDVKINLI	6.69 ± 0.78	6.7 ± 1.3	5.74 ± 0.34	6.46 ± 0.88	5.57 ± 0.3	3.24 ± 0.47	5.85 ± 0.45	10.6 ± 1.6	5.71 ± 0.32	13.6 ± 3.4	5.4 ± 0.96	–
MRWLPFIAIFLYVYIEISIFIQVAHVLGVLLTLVLVIFTSVIGMSLVRNQGFKNFVLMQQKMAAGENPAAEMIKSVSLIIAGLLLLLPGFFTDFLGLLLLLPPVQKHLTVKLMPHLRFSRMPGGGFSAGTGGGNTFDGEYQRKDDERDRLDHKDDRQD	5.99 ± 0.11	6.83 ± 1.1	6.44 ± 0.84	6.06 ± 0.49	5.53 ± 0.073	2.47 ± 0.28	7.17 ± 0.34	11.7 ± 1.8	6.12 ± 1.3	14.2	5.89 ± 0.25	12.4 ± 0.96
MLTRLREIVEKVASAPRLNEALNILVTDICLAMDTEVCSVYLADHDRRCYYLMATRGLKKPRGRTVTLAFDEGIVGLVGRLAEPINLADAQKHPSFKYIPSVKEERFRAFLGVPIIQRRQLLGVLVVQQRELRQYDESEESFLVTLATQMAAILSQSQLTALFGQYRQTRIRALPAAPGVAIAEGWQDATLPLMEQVYQASTLDPALERERLTGALEEAANEFRRYSKRFAAGAQKETAAIFDLYSHLLSDTRLRRELFAEVDKGSVAEWAVKTVIEKFAEQFAALSDNYLKERAGDLRALGQRLLFHLDDANQGPNAWPERFILVADELSATTLAELPQDRLVGVVVRDGAANSHAAIMVRALGIPTVMGADIQPSVLHRRTLIVDGYRGELLVDPEPVLLQEYQRLISEEIELSRLAEDDVNLPAQLKSGERIKVMLNAGLSPEHEEKLGSRIDGIGLYRTEIPFMLQSGFPSEEEQVAQYQGMLQMFNDKPVTLRTLDVGADKQLPYMPISEENPCLGWRGIRITLDQPEIFLIQVRAMLRANAATGNLNILLPMVTSLDEVDEARRLIERAGREVEEMIGYEIPKPRIGIMLEVPSMVFMLPHLAKRVDFISVGTNDLTQYILAVDRNNTRVANIYDSLHPAMLRALAMIAREAEIHGIDLRLCGEMAGDPMCVAILIGLGYRHLSMNGRSVARAKYLLRRIDYAEAENLAQRSLEAQLATEVRHQVAAFMERRGMGGLIRGGL	5.82 ± 0.99	5.146 ± 0.0092	4.39 ± 0.15	4.53 ± 0.17	4.44 ± 0.084	3.06 ± 0.15	5.78 ± 0.21	10.7 ± 0.17	4.37 ± 0.11	7.03 ± 0.12	6.54 ± 0.36	11.5 ± 1.8
